Patent US10175244B2, “Dominant negative HSP110 mutant and its use in prognosing and treating cancers” (INSERM (INSTITUT NATIONAL DE LA SANTÉ ET DE LA RECHERCHE …, priority 2011, dated 2019)

Columns and labels:
HCT116 cells = test: Cell death analysis, TRAIL-induced apoptosis in transfected cells; assay type: cell-based, human; conditions: for protective (anti-apoptotic) effect against TRAIL-induced apoptosis: transfected HCT116 cells
Protocol: FIG. 11 depicts the effect of HSP110delE9 on apoptosis. HCT116 cells transfected with GFP-tagged HSP110, HSP110delE9 or an empty vector (GFP) were treated with recombinant TRAIL ligand (5 h) at the indicated doses. Apoptosis was measured by FACS analysis of caspase 3 activity.
FIG. 12 depicts the effect of increasing dose of HSP110delE9 on apoptosis. HCT116 cells transfected with GFP-tagged HSP110 and increased doses of HSP110delE9 or an empty vector (GFP) were treated with recombinant TRAIL ligand (60 ng/ml, 5 h) and the percentage of apoptosis was determined by DAPI staining (chromatin condensation).
(§1) Adherent cells were plated onto 12-well culture plates (1.5×10^5 cells/well) in complete medium. When indicated, cells were treated with TRAIL (150 ng/ml or 500 ng/ml) for 4 hours and cell death was measured by Hoechst 33342 staining (Sigma-Aldrich). Following treatment for 48 h with oxaliplatin (OxaPt, 20 and 40 μM), apoptotic cells were detected by Apo2.7 staining. Briefly, cells were harvested, washed in PBS and permeabilized with digitonin (100 mg/ml, 10 min at 4° C.). Cells were incubated with anti-Apo2.7 antibody and apoptotic cells were analyzed by flow cytometry using a LSR2 flow cytometer (Becton Dickinson, Franklin Lakes, N.J.).
(§2) A number of studies have previously described the anti-apoptotic role of HSP110. We therefore investigated the effect on apoptosis of the HSP110 truncation due to exon 9 skipping. HCT116 cells were transfected with HSP110wt or HSP110delE9 and apoptosis was triggered using the cell death factor, TRAIL (Tumor necrosis factor-related-apoptosis-inducing ligand).

[1] = system: protein aggregation induced by a heat shock; test: HSP110 chaperone activity, protein thermolability assay; assay type: biochemical, mouse; conditions: for anti-aggregation chaperone activity: protein extracts of transfected MEF heated at 55° C. for 1 h
Protocol: FIG. 9 depicts the effect of HSP110delE9 expression on protein aggregation. Protein extracts from MEF HSF1^+/+ cells transfected with HSP70, HSP110 and/or HSP110delE9 were heated at 55° C. for 1 h. The ratio between the initial amount of soluble protein before and after heat shock allowed to the quantification of protein aggregation. Each bar is the mean value of 4 different experiments. *P<0.05.
HSP110 chaperone activity was evaluated using a protein thermolability assay. Total protein (2 mg/mL) from HSF1^−/− MEFs that had been transfected with HSP70 (positive control), HSP27 (negative control), HSP110 or Mutant HSP110 (Dc Assay Kits, Bio-Rad, France) was heated at 55° C. for 1 hour. After centrifugation to eliminate aggregated proteins, the remaining native proteins in the supernatant were quantified. The ratio between the initial amount of soluble protein and that obtained after heating allowed for the quantification of protein aggregation.
(§3) The skipping of HSP110 exon 9 is frameshift and therefore generates a premature terminaison codon in exon 10 of the HSP110delE9 mRNA. HSP110delE9 is a truncated protein that contains the N-terminal ATP binding domain but is devoid of the substrate binding domain (FIG. 3). We performed several functional assays to better understand the role of increased expression of HSP110delE9 in MSI CRC cell lines. Chaperone activity was first studied using a protein thermolability assay that measures the in vitro ability of HSP110 to block protein aggregation induced by a heat shock using Murine Embryonic Fibroblasts (MEF).

HSP70 = molecular target: T1, HSP70 (Homo sapiens, UniProt P0DMV8); test: Immunoprecipitation and Western-blotting, association with HSP70; assay type: binding; conditions: HCT116 cells, immunoprecipitation
T1 construct: HA; expressed in transfected cells; host or cells: HCT116
T1 sequence (P0DMV8 whole entry): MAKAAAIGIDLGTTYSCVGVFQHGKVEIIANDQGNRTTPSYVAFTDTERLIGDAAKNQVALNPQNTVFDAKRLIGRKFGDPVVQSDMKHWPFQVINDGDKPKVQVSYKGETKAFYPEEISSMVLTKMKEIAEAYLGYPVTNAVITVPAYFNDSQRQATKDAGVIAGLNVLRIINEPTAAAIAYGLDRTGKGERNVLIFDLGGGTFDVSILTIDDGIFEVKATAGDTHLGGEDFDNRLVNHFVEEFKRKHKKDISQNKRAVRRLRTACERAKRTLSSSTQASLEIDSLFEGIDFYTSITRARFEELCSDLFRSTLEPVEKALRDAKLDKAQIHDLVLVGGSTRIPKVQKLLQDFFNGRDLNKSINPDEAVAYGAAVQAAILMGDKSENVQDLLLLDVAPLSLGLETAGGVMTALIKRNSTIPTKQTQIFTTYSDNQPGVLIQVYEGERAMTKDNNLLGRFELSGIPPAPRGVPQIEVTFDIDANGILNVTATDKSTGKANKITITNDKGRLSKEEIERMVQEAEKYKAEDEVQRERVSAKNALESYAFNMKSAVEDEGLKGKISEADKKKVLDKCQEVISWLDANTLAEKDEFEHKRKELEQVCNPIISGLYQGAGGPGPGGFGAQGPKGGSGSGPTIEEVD
Protocol: (§4) Transfected cells were first lysed in lysis buffer (50 mM Hepes (pH 7.6), 150 mM NaCl, 5 mM EDTA and 0.1% NP40) followed by immunoprecipitation using GFP-tag antibody. Immunoprecipitates were separated in a 10% SDS-polyacrylamide gel and then transferred to PVDF membranes using a wet transfer apparatus (BioRad, Hercules, Califomia, USA). Membranes were first probed ovemight using primary antibodies: HA-tag antibody was from Covance (Eurogentec, Angers, France), 14-3-3 from Santa-Cruz (TebuBio, Le Perray en Yvelines, France) and GFP-tag antibody from Millipore (Molsheim, France).
as §3

HSP27 = molecular target: T2, HSP27 (Homo sapiens, UniProt P04792); test: Immunoprecipitation and Western-blotting, association with HSP27; assay type: binding; conditions: HCT116 cells, immunoprecipitation
T2 construct: HA; expressed in transfected cells; host or cells: HCT116
T2 sequence (P04792 whole entry): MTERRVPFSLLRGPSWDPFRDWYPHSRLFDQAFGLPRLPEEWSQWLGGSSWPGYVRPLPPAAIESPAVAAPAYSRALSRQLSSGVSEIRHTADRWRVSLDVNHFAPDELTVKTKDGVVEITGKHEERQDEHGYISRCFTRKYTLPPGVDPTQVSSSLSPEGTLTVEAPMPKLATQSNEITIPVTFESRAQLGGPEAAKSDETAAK
Protocol: as §4, §3

HSP90 = test: Immunoprecipitation and Western-blotting, association with HSP90; assay type: binding; conditions: HCT116 cells, immunoprecipitation
Protocol: as §4, §3

[2] = system: denatured protein substrates; conditions: compared to HSC70 and HSP70; cited from earlier work
HSP110wt = molecular target: T3, HSP110wt (Homo sapiens, UniProt Q92598); test: Immunoprecipitation and Western-blotting, association with HSP110wt; assay type: binding; conditions: HCT116 cells, immunoprecipitation
T3 construct: host or cells: HCT116
Protocol: FIG. 10 depicts the analysis of HSP110delE9 to wild-type HSP110. Cell lysates from HCT116 transfected with GFP-tagged HSP110 and/or HSP110delE9 were subjected to immunoprecipitation using HSP110 that recognizes the C-terminus of HSP110. After migration, membranes were immunoblotted with GFP antibody. Inputs: protein level in total cell lysates.
as §4
as §3, with “Chaperone activity was first studied using a protein thermolability assay that measures the in vitro ability of HSP110 to block protein aggregation induced by a heat shock using Murine Embryonic Fibroblasts (MEF).” left out

[3] = system: MSI (HCT116, LoVo) and MSS (SW480) CRC cell lines; test: Cell death analysis, sensitivity of transfected CRC cell lines to anticancer agents; assay type: cell-based, human
Protocol: FIG. 13 depicts the pro-apoptotic effect of HSP110delE9 on tumor cells treated with a chemotherapeutic agent. HCT116 (MSI) or SW480 (MSS) cells were transfected with HSP110wt (1.5 μg) and co-transfected with two different doses (0.5 and 1 μg) of either GFP-empty vector or HSP110delE9. After treatment with oxaliplatin (Oxa, 40 μM, 48 h), apoptosis was assessed by FACS analysis. *P<0.05.
as §1, §2

[4] = system: MSI colon tumor cell lines; test: Apoptosis on re-expression of HSP110delE9 (NMD experiments); assay type: cell-based; conditions: data not shown
Description: The HSP110delE9 transcript contains a premature stop codon (PTC). Consequently, it is partially degraded by the NMD system in the tumor cells. […] Synthesis of chemical or biological compounds mimicking the HSP110delE9 activity in tumor cells, in particular mimicking its anti-apoptotic effect may have a major therapeutical interest in the treatment of CRCs. In the same way, the use of compounds susceptible to promote the HSP110delE9 expression in the tumor cells would be of great interest. […] Different pharmacological inhibitors of NMD are now available. They can be used to reproduce these experiments, both in vitro in different cell models and in animal models (nude mice xenografted with MSI CRC in first-line).

B1: TRAIL: cell death factor, Tumor necrosis factor-related-apoptosis-inducing ligand, recombinant (protein, UniProt P50591 1-281, looked up)
Tumor necrosis factor ligand …: MAMMEVQGGPSLGQTCVLIVIFTVLLQSLCVAVTYVYFTNELKQMQDKYSKSGIACFLKEDDSYWDPNDEESMNSPCWQVKWQLRQLVRKMILRTSEETISTVQEKQQNISPLVRERGPQRVAAHITGTRGRSNTLSSPNSKNEKALGRKINSWESSRSGHSFLSNLHLRNGELVIHEKGFYYIYSQTYFRFQEEIKENTKNDKQMVQYIYKYTSYPDPILLMKSARNSCWSKDAEYGLYSIYQGGIFELKENDRIFVSVTNEHLIDMDHEASFFGAFLVG
modifications: His tag
notes: cell death factor, Tumor necrosis factor-related-apoptosis-inducing ligand, recombinant
induction of apoptosis (HCT116 cells; HCT116 cells treated with TRAIL): induced dose dependent apoptosis

B2: HSP110wt: wild-type heat-shock 110 kDa protein, SEQ ID NO: 2 (protein, listed as Homo sapiens)
chain: MSVVGLDVGSQSCYIAVARAGGIETIANEFSDRCTPSVISFGSKNRTIGVAAKNQQITHANNTVSNFKRFHGRAFNDPFIQKEKENLSYDLVPLKNGGVGIKVMYMGEEHLFSVEQITAMLLTKLKETAENSLKKPVTDCVISVPSFFTDAERRSVLDAAQIVGLNCLRLMNDMTAVALNYGIYKQDLPSLDEKPRIVVFVDMGHSAFQVSACAFNKGKLKVLGTAFDPFLGGKNFDEKLVEHFCAEFKTKYKLDAKSKIRALLRLYQECEKLKKLMSSNSTDLPLNIECFMNDKDVSGKMNRSQFEELCAELLQKIEVPLYSLLEQTHLKVEDVSAVEIVGGATRIPAVKERIAKFFGKDISTTLNADEAVARGCALQCAILSPAFKVREFSVTDAVPFPISLIWNHDSEDTEGVHEVFSRNHAAPFSKVLTFLRRGPFELEAFYSDPQGVPYPEAKIGRFVVQNVSAQKDGEKSRVKVKVRVNTHGIFTISTASMVEKVPTEENEMSSEADMECLNQRPPENPDTDKNVQQDNSEAGTQPQVQTDAQQTSQSPPSPELTSEENKIPDADKANEKKVDQPPEAKKPKIKVVNVELPIEANLVWQLGKDLLNMYIETEGKMIMQDKLEKERNDAKNAVEEYVYEFRDKLCGPYEKFICEQDHQNFLRLLTETEDWLYEEGEDQAKQAYVDKLEELMKIGTPVKVRFQEAEERPKMFEELGQRLQHYAKIAADFRNKDEKYNHIDESEMKKVEKSVNEVMEWMNNVMNAQAKKSLDQDPVVRAQEIKTKIKELNNTCEPVVTQPKPKIESPKLERTPNGPNIDKKEEDLEDKNNFGAEPPHQNGECYPNEKNSVNMDLD
anti-aggregation chaperone activity [1]: anti-aggregation activity comparable to other HSPs such as HSP70 | association with HSP70 (HSP70): efficiently interacted with HSP70 | association with HSP27 (HSP27): efficiently interacted | association with HSP90 (HSP90): not with HSP90 | protective (anti-apoptotic) effect against TRAIL-induced apoptosis (HCT116 cells): exerted a protective effect | efficiency at binding and stabilizing denatured protein substrates [2]: approximately four-fold more efficient

B3: HSP110delE9: truncated HSP110 protein (SEQ ID NO: 1) from mRNA lacking exon 9, devoid of the substrate binding domain (protein, listed as Homo sapiens)
chain: MSVVGLDVGSQSCYIAVARAGGIETIANEFSDRCTPSVISFGSKNRTIGVAAKNQQITHANNTVSNFKRFHGRAFNDPFIQKEKENLSYDLVPLKNGGVGIKVMYMGEEHLFSVEQITAMLLTKLKETAENSLKKPVTDCVISVPSFFTDAERRSVLDAAQIVGLNCLRLMNDMTAVALNYGIYKQDLPSLDEKPRIVVFVDMGHSAFQVSACAFNKGKLKVLGTAFDPFLGGKNFDEKLVEHFCAEFKTKYKLDAKSKIRALLRLYQECEKLKKLMSSNSTDLPLNIECFMNDKDVSGKMNRSQFEELCAELLQKIEVPLYSLLEQTHLKVEDVSAVEIVGGATRIPAVKERIAKFFGKDISTTLNADEAVARGCALQC
effect on anti-aggregation activity of HSP110wt ([1]; HSP110delE9 added at the same time as HSP110wt): anti-aggregation activity of HSP110wt was abrogated | anti-aggregation chaperone activity [1]: lost this chaperone activity | association with HSP70 (HSP70): lost the ability to associate with HSP70 and HSP27 | association with HSP27 (HSP27): lost the ability to associate with HSP70 and HSP27 | association with HSP110wt (HSP110wt): associated strongly with HSP110wt | effect on anti-apoptotic function of HSP110wt (HCT116 cells; HCT116 co-transfected with HSP110wt and increasing doses of HSP110delE9, TRAIL): able to block its anti-apoptotic function in a dose-dependent manner | protective (anti-apoptotic) effect against TRAIL-induced apoptosis (HCT116 cells): lacked the protective properties of HSP110wt | sensitization of colon cancer cells to chemotherapeutic agents ([3]; 5-fluorouracil and oxaliplatin, in vitro): caused the sensitization of colon cancer cells | sensitivity of CRC cell lines to oxaliplatin ([3]; over-expression in HCT116, LoVo, SW480): increased their sensitivity to anticancer agents such as oxaliplatin | apoptosis on re-expression [4]: causes apoptosis of MSI colon tumor cell lines
